Patent US20180000964A1 (Genentech, published 2018)
Like-named read-outs stand apart in the source and are kept apart here.

B1: anti-Bsg^A (antibody, V domains shown)
VH: EVQLVESGGGLVLPGRSMKLSCAASGFTFRTYYMAWVRQAPTKGLEWVASISIGGDNTYYRDSVMGRFTISRDDAKSTLHLQMDNLRSEDTATYYCVRLRGYFDYWGQGVMVTVSS
VL: EIVLTQSPATMPASPGEKVTLTCRASSSIRYIYWYQQKSGTSPKLWIYDTSKLASGVPNRFSGSGSGTSYSLTISSMETEDTATYYCQQGRSYPLTFGSGTKLEIK
notes: also called bivalent (monospecific) anti-Bsg^A
B2: anti-Glut1 antibody (antibody, V domains shown)
VH: QVQLQQPGSVLVRPGASVKLSCKASGYTFTGSWLHWAKQRPGQGLEWIGEIHPYSGNTNYNERFKGKATLTVDTPSSTAYVDLRSLTFEDSAVYYCAKEGGWFLRIYGMDYWGQGTSVTVSS
VL: DIVLTQSPSSLSASLGDTITITCHASQNINVWLSWYQQKPGNIPKLLIYKASNLHSGVPSRFSGSGSGTGFTLTISSLQPEDIATYYCQQGQTFPYTFGGGTRLEIK
notes: Raised by DNA immunization with hGlut1 cDNA; also called bivalent (monospecific) anti-Glut1
B3: anti-Bsg^B (antibody, V domains shown)
VH: EVQLVESGGGLVQPGRSLKLSCVASGFTFNNYWMTWIRQAPGKGLEWFASITNTGGSTYYPDSVKGRFTISRDNAQSTLYLQTNSLRPEDTATYYCARRDGSYYPYYWYFDLWGPGTTVTVSS
VL: NTVMTQSPTSMFISVGDRVTMNCKASRSVGTNVDWYQQKTGQSPTLLFYGASNRYIGVPDRFTGSGSGTDFTLTISNMQAEDLAVYYCLQYNYNWAFGGGTKLELK
notes: also called bivalent (monospecific) anti-Bsg^B

Experiments:
[1] = target: T1, murine basigin extracellular domain, murine Fc tagged (murine); test: Biacore; 'Binding affinity (nM)'; form of the antigen not stated
T1 construct: also called mBsg ECD; murine basigin (ELISA antigen)
T1 chain: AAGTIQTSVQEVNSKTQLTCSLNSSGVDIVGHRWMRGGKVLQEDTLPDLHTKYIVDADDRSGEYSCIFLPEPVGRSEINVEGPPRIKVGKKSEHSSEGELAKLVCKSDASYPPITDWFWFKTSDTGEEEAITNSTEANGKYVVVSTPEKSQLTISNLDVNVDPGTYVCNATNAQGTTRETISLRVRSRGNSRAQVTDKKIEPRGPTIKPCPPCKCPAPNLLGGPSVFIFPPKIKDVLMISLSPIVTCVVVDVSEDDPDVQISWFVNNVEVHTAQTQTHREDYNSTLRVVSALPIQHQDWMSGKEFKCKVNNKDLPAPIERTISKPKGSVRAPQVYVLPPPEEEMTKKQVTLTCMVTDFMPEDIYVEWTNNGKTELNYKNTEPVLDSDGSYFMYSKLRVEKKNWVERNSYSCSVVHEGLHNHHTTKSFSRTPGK

[2] = target: T1, murine basigin extracellular domain, …; test: competitive ELISA on coated murine basigin against biotinylated bispecific antibody
Method: Nunc 96-well Maxisorp immunoplates were coated overnight at 4° C. with antigen (2 μg/ml) and blocked for 1 hour at room temperature with blocking buffer PBST. Serial dilutions of bivalent or bispecific antibodies were subsequently added to the plates with a sub-saturating concentration of biotinylated bispecific antibody at room temperature for 1 hour. Plates were washed with wash buffer (PBS with 0.05% Tween 20) and incubated for 30 minutes with horseradish peroxidase (HRP)-conjugated streptavidin, and developed with tetramethylbenzidine (TMB) substrate. Absorbance was measured spectrophotometrically at 650 nm.

[3] = target: murine basigin extracellular domain, murine Fc tagged (murine); test: as above
murine Glut1 (on cells) = target: T2, murine Glut1 (on cells) (murine, UniProt P17809 1-492); test: flow cytometry (MFI) on HEK293 cells stably expressing Glut1; bivalent (monospecific) anti-Glut1, not the bispecific anti-Glut1/BACE1
T2 construct: whole, on cells; also called glucose transporter 1; Slc2a1
T2 sequence (looked up): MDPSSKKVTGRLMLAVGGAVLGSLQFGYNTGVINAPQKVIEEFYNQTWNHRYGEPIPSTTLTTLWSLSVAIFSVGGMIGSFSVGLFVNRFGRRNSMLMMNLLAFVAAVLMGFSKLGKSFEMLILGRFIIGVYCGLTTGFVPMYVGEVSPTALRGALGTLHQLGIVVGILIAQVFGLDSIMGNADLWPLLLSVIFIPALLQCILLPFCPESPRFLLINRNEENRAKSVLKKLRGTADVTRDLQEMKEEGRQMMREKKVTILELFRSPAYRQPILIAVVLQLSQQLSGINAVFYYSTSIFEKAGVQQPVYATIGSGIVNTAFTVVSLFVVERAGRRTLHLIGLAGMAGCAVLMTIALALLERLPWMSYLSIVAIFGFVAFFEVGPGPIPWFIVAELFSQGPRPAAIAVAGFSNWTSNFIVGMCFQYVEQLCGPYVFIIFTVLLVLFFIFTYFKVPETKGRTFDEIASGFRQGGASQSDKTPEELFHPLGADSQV
Method: Purified antibodies were screened on 293 cells transfected with the corresponding antigens. Cells were collected from flasks/dishes, washed with phosphate-buffered saline (PBS), and added to 96-well U-bottom plates (BD Falcon 353077, BD, Franklin Lakes, N.J.) at 1,000,000 cells per well. Samples were added to cells (100 μL/well) and incubated at 4° C. for 30-60 minutes. Plates were then centrifuged (1200 rpm, 5 minutes, 4° C.) and washed twice with PBS/1% FBS (200 μl per well). R-Phycoerythrin-conjugated Ziege anti-human IgG Fc (Jackson ImmunoReseach Laboratories Inc. (West Grove, Pa.); 109-116-098; 100 μl diluted in PBS) was then added and the plates incubated at 4° C. (covered) for 30 minutes. After the final wash, the cells were fixed in PBS containing 1% formalin, and read using a FACSCalibur™ flow cytometer (BD Biosciences, San Jose, Calif.). Mean fluorescence intensity (MFI) of each sample was then measured using the FlowJo software (Treestar, Inc., Ashland, Oreg.).

Row | Binder | Kd [1] [nM] | IC50 [2] [nM] | IC50 [3] [nM] | EC50 (murine Glut1 (on cells)) [µg/mL]
1 | B1 | 13.5 | 7.1 | 106 | 
2 | B2 |  |  |  | 0.6
3 | B3 | 102 | 17.5 | 127 | 
